The values that follow come from publication PMC12262204.

Like-named read-outs stand apart in the source and are kept apart here.

Test in all cases: BLI
Experiment [1] has as its target T1, Biotin-CGRP(8-37)NH2[N31D/S34P/K35W/A36S] (human).
T1 sequence (P06881 90-119 with N31D S34P K35W A36S, looked up): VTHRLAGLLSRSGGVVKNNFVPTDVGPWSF

The target of experiment [2] is biotin-CGRP(8-37)NH2 (human).
Experiment [3] addresses T1, Biotin-CGRP(8-37)NH2[N31D/S34P/K35W/A36S] (human). This is another data set of the same source.

In experiment [1], “RAMP1.24-111-(GS)5-CLR.29-134-H6 (CLR:RAMP1 ECD fusion protein) (from UniProt O60894 24-111; Q16602 29-134) (receptor)” returned a half-life of 1.52 min and a residence time of 2.18 min. In experiment [2], the equilibrium dissociation constant (Kd) stood at 52.2 µM, the koff was 3.3 s⁻¹ and the association rate constant (kon) worked out at 63300 M⁻¹ s⁻¹. The residence time in experiment [3] was 132 s.

For orientation: half-life means the time needed for the level to fall by half in the phase considered. Lower therefore signals rapid decline. The term residence time denotes how long the partners stay bound on average. Broadly, the Kd is the free concentration of one partner at which half of the binding sites on the other are occupied at equilibrium, for simple one-to-one binding. A word on the koff: it is the first-order rate constant of dissociation. For orientation: kon means a measure of how fast the partners come together. Read a low kon as slow association.
